Data as given in patent US10975360B2, “Process for the modification of alkanes, fatty acids and fatty alcohols” (priority 2016, dated 2021).

How the values were obtained:
[1] = format: cell-based, P. pastoris
Procedure: (§1) Precultures of P. pastoris transformants were prepared in buffered complex glycerol media (BMGY). BMGY contained: 10 g/l yeast extract, 20 g/l peptone, 3.4 g/l yeast nitrogen base, 10 g/l ammonium sulfate, 100 mM potassium phosphate (pH 6), 0.4 mg/l biotin and 1% (v/v) glycerol. Erlenmeyer flasks (500 ml) containing 50 ml BMGY media were inoculated with single colonies of 24 h old YPD-agar cultures of P. pastoris KM71 mut^s3/CYP505E3 and incubated at 30° C. and 225 rpm for 24 h. The cultures were harvested using pre-weighed centrifuge tubes at 3000 g for 5 min and stored on ice until further use.
(§2) The main cultures for expression were prepared in buffered complex methanol media (BMMY) containing 10 g/l yeast extract, 20 g/l peptone, 3.4 g/l yeast nitrogen base, 10 g/l ammonium sulfate, 100 mM potassium phosphate (pH 6), 0.4 mg/l biotin and 0.5 or 1% (v/v) methanol. Harvested cells from precultures were resuspended in BMMY media to final concentration of 1 g WC per 40 ml (appx. 25 g/l). The resuspended cultures (100 ml) were transferred to 500 ml Erlenmeyer flasks and incubated at 25° C. and 225 rpm for 24 h. The cultures were then harvested at 3000 g for 5 min using pre-weighed centrifuge tubes.
(§3) Different transformants of Pichia pastoris KM71 harbouring the CYP505 genes for SEQ ID Nos 1 to 7 and 9 to 12 were grown and harvested as described above. The harvested cells were resuspended to give 1 g wet cell weight in 40 ml MOPS buffer (200 mM, 100 mM glucose, 100 mM glycerol, pH 8) and 1 ml aliquots of these cell suspensions were transferred to 40 ml amber vials. Dodecane, 1-dodecanol and 1-tetradecanol were added neat to these cell suspensions to give final concentrations of 200 mM in the case of the alcohols and 1 M in the case of dodecane while in the case of dodecanoic acid 20 μl of a 500 mM stock solution (in DMSO) was added to give a final concentration of 10 mM. Transformants harbouring the CYP505 genes for SEQ ID Nos 1 to 4 were tested for the biotransformation of 1-dodecanol, 1-tetradecanol, dodecanoic acid, tetradecanoic acid and dodecane, while those harbouring the CYP505 genes for SEQ ID Nos 5 to 7 and 9 to 12 were only tested for the biotransformation of 1-dodecanol and dodecanoic acid. The biotransformations were incubated at 25° C. and 225 rpm for 24 h. Extractions were performed using ethyl acetate (500 μl×2). The extracts were analyzed using GC/MS.

[2] = Whole cell biotransformation of dodecane by CYP505s expressed in P. pastoris; format: cell-based; conditions: whole cells of P. pastoris; for products produced from dodecane (GC-MS): 1 M dodecane, 24 h; for ω-7 hydroxylase activity C12alk: C12 alkane, GC-MS peak height
Procedure: as §1, §2, §3

B1: CYP505Pe: CYP505 cytochrome P450 monooxygenase from Penicillium expansum, SEQ ID No 4 (protein, listed as Penicillium expansum)
chain: MKDMESIPGPKPLPVVGNLFDIDLENGLQSIIKMAHEFGPLFQITINGQKQIFATSQALVDELCDETRFHKAVMGGIQKLRMLAKDGLFTAYHGERGWGIAHRILMPAFGPLRIRDMFEDMSDVAQQLCFKWARQGSSTSINICDDFTRLTLDTIALCTMGFRLNSYYNSNALHPFIESMLYVLKEAELQSTLPGVANCMRVKAQRRMSKHIDAMRSMARNLIEERRAKPEPVDDLLNTLLNGRDPITGEGMSDDLIISNIITFLIAGHETTSGLLSFTFYYLLQNQDVLERARNEVDEVTGVGPITVQHLAKLPYIDAIMKESLRLMPTAPAFTVTPQKPEVLGGKWMINTGDSVNLLLPVCLRDETVFGPDAGEFRPNRMLEENFSKLPPNSWKPFGNGERGCIGRAFAWQEAQLVVALVLRTFDLAAEDPYYKLRIKETLTIKPDGFRIRATLRHGKSATALSQNNISVGAAASPASSTYLAGNENGRDAAGGQPVSFFYGSNSGTCKALTHRLASTMMTRGFTDQNIAPLDSAVDNLPRDQPTIIITTTYDGQPTDDAKKFVAWLESGNSPSLQGVSYAVFGCGHQDWTKTFYRIPILIDALMYKAGATRLATRGAANAAISDLFSDLEVWEETNLLPGLRESFNPPNNSNFVPLEPHQLQISINKPTRVGMHRDLIEAKVTAIRTLTSPGAPEKRHLEFCIPGETTLRPGDHLNILPVNPPSTVSRALARFNLAPDHSITFESSNALDLPQATPVSAAELFSSYLELSQPATRNNLKELASTTPSDGEKQELLHLYDSYDSLIRAKRASVLDLLEQFTSVTLPITTFISMLPALRVRTYSLSMAPSFKPLHYSLTFSVINEPAWNGNGRYLGVASNYLASLNLGSILYISPRPAKDAFHLPTDQSSKPIIMICAGSGLAPFRSFIQDRMLWQQQDKTLAKALLFFGCRSPQLDDLYHDELSQFEAAGVVEVRRAYSKVPNHYLAKGCRYVQHRLLTETETIQDMWAQDAIIYVCGSGNLAKGVKAVLESMLGTLSERYITEIF
What does the source list for B1?
products produced from tetradecanoic acid (GC-MS) [1]: only 7-hydroxy tetradecanoic acid; ω-7 hydroxylase activity C14o [1]: −; products produced from dodecane (GC-MS) [2]: 5-dodecanol; ω-7 hydroxylase activity C12alk [2]: ++ (++ 0.1 million < RA < 1 million)

B2: CYP505E1: CYP505 cytochrome P450 monooxygenase from Aspergillus niger, SEQ ID No 3 (protein, listed as Aspergillus kawachii)
chain: MKDAERIPGPKPLPVVGNLFDIDPEHSLESIVAFAEKFGPLFQITINGEKQIFATSQALVDELCDELRFHKAVVTGLEILRLLAHDGLFTAYHGERGWGIAHRILVPAFGPLRIRNMLDDMSDVAQQLCLKWARQGGSTSINITEDFTRLTLDTIALCTMGFRLNSFYNNETMHPFVQSMLYVLREADIQANLPGIANSIRVSAQRRMHKNIEAMRTMARGIIQERRKNKNPVDDILNTLLNGRDPVTGEGMSDDSIIDNVITFLIAGHETTSGLLSFTFYFLIQHPHILKKAQEEVDETVGLAQISAQHLAELPYIDAILKESLRLMPTAPGFTVTPKKTEVLGGRWMINAGQPVNVLLPACLRDQSVFGPDADEFRPERMLAENFSKLPPNSWKPFGNGERGCIGRAFAWQEAQLVVAMILQTFDLVPDDPSYQLRIKETLTIKPDGFRIRATLRRGQTATGLSRRSMLVARDGSSEESSNHPAEARGDHAPARGQPVSFFYGSNSGTCKALAHQLASNMMSRGYTTQKLAPLDNAVDNLPRDQPVIILTTTYDGQPTDNAKKFVAWLETGNVLSLQGISYAVFGCGHHDWTQTFYRIPILIDDLMYKAGATRLAPRGAANAAVSDLFSDLEAWEETSLLPALRENFLPSNSTDFDPLNPHQIQLSLSKPRRVDLHKGLIEAKVTAVRVLTSPDTPEKRHLEFCFQGDLSLRPGDHLNILPVNPPSTVSRVLAQFNLAPDYNITVNSFNTLGLPQATPVSASELFSSYVELCQPATRNNLKSLIAATQSDTVKQELNRLYDSYEFIVRDKRVSVLDLLEQFPSISLPIAAFISMLPALRVRTYSLSMAPAFKPSHSSLTFSVINEPAWRGSGQHLGVASNYLASLTSGSIFYFSPRPAKETFHLPKDPSRTPIIMICAGSGLAPFLSFIQDRMVLKQQNKPLAKAFLFFGCRGRSLDDLYHEELSEYEAAGVVEVRRAYSKTPEFDIAKGCRYVQHRLVTEGQAILSLWAQNAIIYVCGSTSMAKGAEAVLQNMLGPLPKERYVTEIF
With B2 as the molecule, how does the “products produced from tetradecanoic acid (GC-MS)” value [1] read?
The value was “only 7-hydroxy tetradecanoic acid”.

And the “ω-7 hydroxylase activity C14o” value [1]?
Its value is “−”.

What about the “products produced from dodecane (GC-MS)” value [2] of the same molecule?
Its value is 5-dodecanol.

What about the “ω-7 hydroxylase activity C12alk” value [2] of the same molecule?
Its value is “+ (+ − 0.01 million < RA < 0.1 million)”.

B3: CYP505Ak: CYP505 cytochrome P450 monooxygenase from Aspergillus kawachii, SEQ ID No 2 (protein)
chain: MRDAERIPGPTPLPVVGNLFDIDLEHVLQSVIGLANKYGPLFQITINGEKQIFATSQALVDELCDESRFHKAVASGLENLRMLAHDGLFTAYHGERGWGIAHRILVPAFGPLRIQSMFDDMGDLAQQLCLKWARQGASNSINITDDFTRLTLDTIALCTMDFRLNSFYNNDTMHPFVESMLYVLREADVQSALPGIANSVRIMAHRRMLKNIEAMRTIARDIIHDRRKKENPADDLLNTLLNGRDPVTGEGMSDESIIDNVITFLVAGHETTSGLLSFTFYYLVQHPDILKKAQKEVDETVGQAQISVQHLAELPYIDAILKESLRMMPTAPGFTVTPKKAETLGGKWLLNAGQPINVLLPACLRDRSIFGPNADEFSPGRMLAENFSKLPPNSWKPFGNGERSCIGRAFAWQEAQLVVAMILQNFDLVPDDPSYTLRIKETLTIKPDGFRVRATLRHRQTATGLFQHTLSARNDTSLASSSAHFIKKSEDQAPAGGRPICFFYGSNSGTCKALAHRLASDLMPYGFTDQKLAVLDTAVDNLPRDQPVIILTTTYDGQPTDDAKKFVAWLESGKVPALQGISYAVFGCGHHDWTQTFYRIPTLIDELMHKAGATRLAPRGTANAAVSDLFSDLEAWEETSLLPALRETFLLSSSSDLEPLNLHQLQISLSKPRRIDLHKDLMEARVTTVRILTNPDTPEKRHIEFRFQGDTTLRPGDHVNVLPVNPPSTVLRVLAQFNLAPDYSITINSFNTLGLPQATPVSASELFSAYVELSQPATRNNLRILAATAQSDEDKQELIHLQDSYDSLVRDKRVSVLDLLEQFPSVSLPIAAFISMLPALRLRTYSLSLAPSFKPSHGSLTFSVVNEPARNGNRRYLGVGSNYLASLTPGSILYLSPRPAKEAFHLPVDQSRIPIIMICAGSGLAPFLSFIQDRMIWQQQDKPLARALLFFGCGGRFLDDLYHEELSEFEAAGVVDVRRAYSKVLDYDMARGCKYVQDRLVAEANAIRHLWAQDATIYVCGSADMAKGVEGVLEKLLGMLPRERYVTEIYQMQTRDNVSEWLI
modifications: Aspergillus niger
For B3, which “products produced from tetradecanoic acid (GC-MS)” value [1] is on record?
The value was “only 7-hydroxy tetradecanoic acid”.

What about the “products produced from dodecane (GC-MS)” value [2] of the same molecule?
The value was 5-dodecanol.

What about the “ω-7 hydroxylase activity C12alk” value [2] of the same molecule?
Its value is “++ (++ 0.1 million < RA < 1 million)”.
